Results on nine molecules are retold here after US5932425A, “Compositions and methods for modulating cellular NF-κB activation” (Signal Pharmaceuticals, Inc., priority 1997, dated 1999).

Non-standard residues stand in square brackets, D forms with d. No end group written: not given here. pS = N[C@@H](COP(=O)(O)O)C(=O)O

The target of assay [1] is pIκBα ubiquitination (E3 ubiquitin ligase). The assay is described as follows: In vitro ubiquitination assay of phosphorylated, NF-κB complex-associated IκBα. Format: biochemical, human. Particulars: complex-associated 35S-pIκBα, HeLa extract, Bestatin 40 μg/ml; read-out: IC50 of inhibition of the pIκBα ubiquitin conjugation reaction. As to the method:
Following incubation, 1 μl of anti-p65 serum was added, and the NF-κB immune complex was immobilized to Protein A-Sepharose® and subjected to in vitro ubiquitination in HeLa cell extract as described by Alkalay et al. Ubiquitinated proteins were separated by SDS-PAGE and visualized by autoradiography.
To identify the IκBα-ubiquitin ligase recognition motif, various peptides were added at varying concentrations to the reaction mixtures in the presence of the peptidase inhibitor Bestatin (40 μg/ml). The peptides spanned the N-terminal signaling domain of the protein, and were phosphorylated at one or both serine residues (32 and 36), or were unmodified or serine-substituted. These peptides were included in the ubiquitination reaction at different concentrations and tested for inhibition of pIκBα specific ubiquitination. When conjugation of free IκBα was monitored, the translated protein was added directly to the conjugation reaction mixture.

The test system of assay [2] is E-selectin expression in HUVEC. The assay is described as follows: Microinjection into HUVEC, TNFα activation, E-selectin staining. Particulars: 5 mg/ml microinjected, TNFα 3 hours. The format is cell-based, human. An excerpt: Primary human vascular endothelial cells (HUVEC) respond to TNFα stimulation by surface expression of NF-κB regulated adhesion proteins such as ICAM-1, V-CAM-1 and E-selectin (Read et al., Immunity 2:493,1995; Chen et al., J. Immunol 155:3538, 1995). E-selectin expression is particularly NF-κB dependent and is the major inducible endothelial adhesion molecule for initial neutrophil attachment and rolling on activated endothelium. Stimulated cells may be fixed and stained to detect expression of one or more NF-κB regulated adhesion proteins.
HeLa cells were plated on a grid coverslips (Cellocate, Eppendorf) 18 hours before microinjection. Microinjection was performed with a 22 amino acid pIκBα peptide (pp21; Table I and SEQ ID NO:9) or a control phospho-Fos peptide (SEQ ID NO:10) using a semi-automated apparatus (Eppendorf). Peptides were injected into the cell cytoplasm at a concentration of 5 mg/ml in 100 mM KCl, 5 mM Na2 HPO4 (pH 7.2), and immediately activated with TNFα (200 units/mL) for either 20 minutes (for NF-κB translocation) or 3 hours (for E-selectin expression). Following activation, the cells were fixed and stained with p65 specific antibodies (Mercurio et al., Genes & Dev. 7:705, 1993; Santa Cruz) or monoclonal anti-E-selectin antibodies (R&D Systems). […]

Assay [3] deals with NF-κB nuclear translocation in HeLa cells. The assay can be described thus: Microinjection into HeLa cells, TNFα activation, p65 nuclear staining. Format: cell-based, human. Particulars: 5 mg/ml microinjected, TNFα 200 units/mL for 20 minutes. As to the method: Following microinjection, cells are stimulated (e.g., with TNFα) and incubated to allow NF-κB activation. In HeLa cells, TNFα induces rapid nuclear translocation of NF-κB into the nucleus, which may be detected by staining with p65-specific antibodies. Modulating agents induce a statistically significant decrease in NF-κB translocation, and may reduce such translocation to undetectable levels.
HeLa cells were plated on a grid coverslips (Cellocate, Eppendorf) 18 hours before microinjection. Microinjection was performed with a 22 amino acid pIκBα peptide (pp21; Table I and SEQ ID NO:9) or a control phospho-Fos peptide (SEQ ID NO:10) using a semi-automated apparatus (Eppendorf). Peptides were injected into the cell cytoplasm at a concentration of 5 mg/ml in 100 mM KCl, 5 mM Na2 HPO4 (pH 7.2), and immediately activated with TNFα (200 units/mL) for either 20 minutes (for NF-κB translocation) or 3 hours (for E-selectin expression). Following activation, the cells were fixed and stained with p65 specific antibodies (Mercurio et al., Genes & Dev. 7:705, 1993; Santa Cruz) or monoclonal anti-E-selectin antibodies (R&D Systems).

Assay [4] concerns the target specific E3 ubiquitin ligase that recognises phosphorylated IκB.

In general, IC50 refers to the concentration that gives 50% inhibition. CDS*GLDS*M (CD[pS]GLD[pS]M) [pp7]: the IC50 in assay [1] was found to be 10 µM.
As for “CKKERLLDDRHDS*GLDS*MKDEE (CKKERLLDDRHD[pS]GLD[pS]MKDEE) [pp21]”, in assay [2], the “microinjected cells with inhibition of E-selectin expression” value is 70%-80%. Besides, in assay [3], the “microinjected cells in which TNFα-stimulated NF-κB activation was abolished” value was 50%-70%.
As to CKKERLLDDRHD[pS]GLD[pS]MKDEE [doubly phosphorylated IκBα peptide pp21], the IC50 of inhibition of the pIκB conjugation reaction in assay [4] came out at 5 µM.
The molecule CKKERLLDDRHDSGLD[pS]MKDEE [singly phosphorylated IκBα peptide ppS36] yielded an IC50 of inhibition of the pIκBα conjugation in assay [4] of 400 µM.
The molecule CERLLDDRHD[pS]GLD[pS]MKDEE [doubly phosphorylated IκBα peptide pp19] showed an IC50 of inhibition of the pIκB conjugation reaction in assay [4] of 5 µM.
Molecule CKKERLLDDRHD[pS]GLDSMKDEE [singly phosphorylated IκBα peptide ppS32] came in with an IC50 of inhibition of the pIκBα conjugation in assay [4] of 400 µM.
The molecule CDDRHD[pS]GLD[pS]MKDEE [doubly phosphorylated IκBα peptide pp15] yielded an IC50 of inhibition of the pIκB conjugation reaction in assay [4] of 5 µM.
Still for that read-out and setting: in the case of CDDRHD[pS]GLD[pS]M [doubly phosphorylated IκBα peptide pp11] it was 5 µM.
In the case of CD[pS]GLD[pS]M [doubly phosphorylated IκBα peptide pp7], the IC50 of inhibition of pIκBα ubiquitination in assay [4] is 10 µM.
